According to patent US20250152729A1 (CANCER RESEARCH TECHNOLOGY, published 2025):

T1: human SEMA4A expressed on cells (UniProt ID Q9H3S1, isoform 1) (human, UniProt Q9H3S1 33-761)
T1 sequence: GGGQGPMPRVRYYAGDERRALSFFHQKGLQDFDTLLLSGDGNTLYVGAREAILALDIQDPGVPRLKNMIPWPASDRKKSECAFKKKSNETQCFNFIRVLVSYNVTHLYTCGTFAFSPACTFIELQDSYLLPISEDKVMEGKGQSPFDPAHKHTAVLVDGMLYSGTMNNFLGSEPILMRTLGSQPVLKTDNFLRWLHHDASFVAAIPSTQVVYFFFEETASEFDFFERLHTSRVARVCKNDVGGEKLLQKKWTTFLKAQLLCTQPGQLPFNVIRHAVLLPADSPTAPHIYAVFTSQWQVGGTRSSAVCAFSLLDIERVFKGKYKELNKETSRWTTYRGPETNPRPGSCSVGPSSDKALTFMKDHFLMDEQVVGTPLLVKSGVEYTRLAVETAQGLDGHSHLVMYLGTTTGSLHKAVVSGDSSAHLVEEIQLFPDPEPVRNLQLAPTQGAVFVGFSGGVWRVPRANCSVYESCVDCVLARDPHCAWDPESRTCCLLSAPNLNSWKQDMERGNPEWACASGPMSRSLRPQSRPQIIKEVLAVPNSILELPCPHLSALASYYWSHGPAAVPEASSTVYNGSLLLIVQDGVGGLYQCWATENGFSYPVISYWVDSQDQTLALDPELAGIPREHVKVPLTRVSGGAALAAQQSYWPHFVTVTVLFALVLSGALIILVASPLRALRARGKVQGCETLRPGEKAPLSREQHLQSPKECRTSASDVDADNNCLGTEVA

T2: mouse SEMA4A expressed on expi293 cells (UniProt ID Q62178) (mouse, UniProt Q62178 33-760)
T2 construct: Transient transfection in expi293 cells
T2 sequence: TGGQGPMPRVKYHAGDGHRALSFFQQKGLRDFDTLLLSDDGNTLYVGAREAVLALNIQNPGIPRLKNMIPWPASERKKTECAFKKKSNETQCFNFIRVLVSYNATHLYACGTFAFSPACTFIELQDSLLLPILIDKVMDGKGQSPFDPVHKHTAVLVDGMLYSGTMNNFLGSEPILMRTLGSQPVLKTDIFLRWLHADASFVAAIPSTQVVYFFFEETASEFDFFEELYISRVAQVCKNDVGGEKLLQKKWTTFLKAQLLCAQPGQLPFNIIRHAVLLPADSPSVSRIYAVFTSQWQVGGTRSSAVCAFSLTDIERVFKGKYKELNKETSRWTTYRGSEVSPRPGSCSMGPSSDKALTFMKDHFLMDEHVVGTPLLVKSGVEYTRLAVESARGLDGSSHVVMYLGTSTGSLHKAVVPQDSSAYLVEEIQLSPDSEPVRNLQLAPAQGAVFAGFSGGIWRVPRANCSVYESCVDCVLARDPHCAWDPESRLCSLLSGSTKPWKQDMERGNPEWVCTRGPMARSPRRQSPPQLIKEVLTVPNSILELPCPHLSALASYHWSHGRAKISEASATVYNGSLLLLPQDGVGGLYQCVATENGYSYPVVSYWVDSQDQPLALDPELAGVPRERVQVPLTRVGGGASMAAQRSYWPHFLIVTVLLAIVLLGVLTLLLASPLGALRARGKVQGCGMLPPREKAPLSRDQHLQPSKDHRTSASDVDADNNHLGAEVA

B1: mouse 5E3 expressed as human IgG1 Alya (antibody, V domains shown)
VH: QVQLQQPGAELVMPGASVKMSCKASGYTFTDYWMHWVKQRPGQGLEWIGAIDTSDSYTSYNQKFKGKATLTVDESSSTAYMQLSSLTSEDSAVYYCARDYGNFYYYAMDYWGQGTSVTVSS
VL: QAVVTQESALTTSPGETVTLTCRSSTGAVTTSNYANWVQEKPDHLFTGLIGGTNNRAPGVPARFSGSLIGDKAALTITGAQTEDEAIYFCALWYSNHWVFGGGTKLTVL
notes: Mouse variable domains on human IgG1 Alya constant (pEU1.22; 239iCys and S442C, EU numbering); purified, unconjugated; also called 5E3 IgG1 Alya
B2: 5Hg2-5Lg1 human Alya IgG1 (antibody, V domains shown)
VH: QVQLVQSGAEVKKPGASVKVSCKASGYTFTDYWMHWVRQAPGQRLEWMGAIDTSDSYTSYNQKFKGRVTITRDTSASTAYMELSSLRSEDTAVYYCARDYGNFYYYAMDYWGQGTLVTVSS
VL: QAVVTQEPSLTVSPGGTVTLTCRSSTGAVTTSNYANWFQQKPGQAPRTLIYGTNNRAPWTPARFSGSLLGGKAALTLSGAQPEDEAEYYCALWYSNHWVFGGGTKLTVL
notes: Humanised 5E3; human IgG1 Alya constant (239iCys, S442C, EU), lambda light chain; purified, unconjugated
B3: 5Hg1-5Lg1 human Alya IgG1 (antibody, V domains shown)
VH: QVQLVQSGAEVKKPGASVKVSCKASGYTFTDYWMHWVRQAPGQGLEWMGAIDTSDSYTSYNQKFKGRVTMTRDTSTSTVYMELSSLRSEDTAVYYCARDYGNFYYYAMDYWGQGTLVTVSS
VL: QAVVTQEPSLTVSPGGTVTLTCRSSTGAVTTSNYANWFQQKPGQAPRTLIYGTNNRAPWTPARFSGSLLGGKAALTLSGAQPEDEAEYYCALWYSNHWVFGGGTKLTVL
notes: as for B2
B4: 5Hg1-5Lg2 human Alya IgG1 (antibody, V domains shown)
VH: QVQLVQSGAEVKKPGASVKVSCKASGYTFTDYWMHWVRQAPGQGLEWMGAIDTSDSYTSYNQKFKGRVTMTRDTSTSTVYMELSSLRSEDTAVYYCARDYGNFYYYAMDYWGQGTLVTVSS
VL: QAVVTQEPSLTVSPGGTVTLTCRSSTGAVTTSNYANWFQQKPGQAPRTLIYGTNNRAPWTPARFSGSLLGGKAALTLLGAQPEDEAEYYCALWYSNHWVFGGGTKLTVL
notes: as for B2
B5: 5Hg2-5Lg2 human Alya IgG1 (antibody, V domains shown)
VH: QVQLVQSGAEVKKPGASVKVSCKASGYTFTDYWMHWVRQAPGQRLEWMGAIDTSDSYTSYNQKFKGRVTITRDTSASTAYMELSSLRSEDTAVYYCARDYGNFYYYAMDYWGQGTLVTVSS
VL: QAVVTQEPSLTVSPGGTVTLTCRSSTGAVTTSNYANWFQQKPGQAPRTLIYGTNNRAPWTPARFSGSLLGGKAALTLLGAQPEDEAEYYCALWYSNHWVFGGGTKLTVL
notes: as for B2
B6: 5Hg2-5Lg3 human Alya IgG1 (antibody, V domains shown)
VH: QVQLVQSGAEVKKPGASVKVSCKASGYTFTDYWMHWVRQAPGQRLEWMGAIDTSDSYTSYNQKFKGRVTITRDTSASTAYMELSSLRSEDTAVYYCARDYGNFYYYAMDYWGQGTLVTVSS
VL: QTVVTQEPSFSVSPGGTVTLTCRSSTGAVTTSNYANWYQQTPGQAPRTLIYGTNNRAPGVPDRFSGSILGNKAALTITGAQADDESDYYCALWYSNHWVFGGGTKLTVL
notes: as for B2
B7: 5Hg4-5Lg5 human Alya IgG1 (antibody, V domains shown)
VH: QVQLVQSGSELKKPGASVKVSCKASGYTFTDYWMHWVRQAPGQGLEWMGAIDTSDSYTSYNQKFKGRFVFSLDTSVSTAYLQICSLKAEDTAVYYCARDYGNFYYYAMDYWGQGTLVTVSS
VL: QSVVTQPPSVSGAPGQRVTISCRSSTGAVTTSNYANWYQQLPGTAPKLLIYGTNNRAPGVPDRFSGSKSGASASLAITGLQAEDEADYYCALWYSNHWVFGGGTKLTVL
notes: as for B2
B8: 5Hg4-5Lg4 human Alya IgG1 (antibody, V domains shown)
VH: QVQLVQSGSELKKPGASVKVSCKASGYTFTDYWMHWVRQAPGQGLEWMGAIDTSDSYTSYNQKFKGRFVFSLDTSVSTAYLQICSLKAEDTAVYYCARDYGNFYYYAMDYWGQGTLVTVSS
VL: QSALTQPPSVSGSPGQSVTISCRSSTGAVTTSNYANWYQQPPGTAPKLMIYGTNNRAPGVPDRFSGSKSGNTASLTISGLQAEDEADYYCALWYSNHWVFGGGTKLTVL
notes: as for B2
B9: 5Hg4-5Lg1 human Alya IgG1 (antibody, V domains shown)
VH: QVQLVQSGSELKKPGASVKVSCKASGYTFTDYWMHWVRQAPGQGLEWMGAIDTSDSYTSYNQKFKGRFVFSLDTSVSTAYLQICSLKAEDTAVYYCARDYGNFYYYAMDYWGQGTLVTVSS
VL: QAVVTQEPSLTVSPGGTVTLTCRSSTGAVTTSNYANWFQQKPGQAPRTLIYGTNNRAPWTPARFSGSLLGGKAALTLSGAQPEDEAEYYCALWYSNHWVFGGGTKLTVL
notes: as for B2
B10: 5Hg4-5Lg2 human Alya IgG1 (antibody, V domains shown)
VH: QVQLVQSGSELKKPGASVKVSCKASGYTFTDYWMHWVRQAPGQGLEWMGAIDTSDSYTSYNQKFKGRFVFSLDTSVSTAYLQICSLKAEDTAVYYCARDYGNFYYYAMDYWGQGTLVTVSS
VL: QAVVTQEPSLTVSPGGTVTLTCRSSTGAVTTSNYANWFQQKPGQAPRTLIYGTNNRAPWTPARFSGSLLGGKAALTLLGAQPEDEAEYYCALWYSNHWVFGGGTKLTVL
notes: as for B2

Tests used:
[1] = target: T1, human SEMA4A expressed on cells …; assay: cell-based or functional assay
[2] = target: T1, human SEMA4A expressed on cells …; assay: Mirrorball epitope competition on MM.1S cells; competitor: fixed 5E3 mouse IgG1
Excerpt: The 5E3 epitope competition assay assessed the ability of the un-purified IgGs expressed in a human IgG1 backbone to compete for binding to the mouse 5E3 epitope on human SEMA4A endogenously expressed by MM.1S cells, a human multiple myeloma cell line. The assay utilised a secondary-Alexa Fluor 647 conjugate, 5E3 expressed in a mouse IgG1 (A) backbone (BioLegend®, San Diego, CA, 148402) and a Mirrorball fluorescence cytometer (SPT Labtech, UK). Binding of 5E3 mouse IgG1 to MM.1S cells was measured via an anti-mouse secondary labelled with Alexa Fluor 647 (Invitrogen, A21235) in the presence of a single concentration of each un-purified human IgG1. […] 10 μl undiluted un-purified IgG, contained in Expi293 expression medium (Gibco, UK, A1435101), were added to the assay plate (Greiner Bio-one, UK, 781906), followed by 10 ul of 1.2 nM 5E3 mouse IgG1 and 20 μl MM.1S cell suspension containing 1,500 cells that was spiked with 4 nM anti-mouse Alexa Fluor 647. The assay plate was incubated for 4 hours at room temperature, in the dark prior to reading on a Mirrorball fluorescence cytometer (SPT Labtech, UK) using a 640 nm laser for excitation and measuring emission in the FL-4 channel (650-690 nm). Data was analysed as Count x median mean intensity (x FLU). All dilutions were performed in Hanks' balanced salt solution (Sigma, UK; cat: H8264) containing 0.1% (w/V) BSA (Sigma, UK; cat: A9576). Maximum binding signal was determined by analysing the binding of 5E3 mouse IgG1 to MM.1S cells in the absence of competitor un-purified human IgG1. Background binding signal was determined by analysing the fluorescence generated in the absence of 5E3 mouse IgG1. Data were analysed and graphed using GraphPad Prism software (GraphPad Software, Inc, La Jolla, CA).
Hits from the primary screening were re-formatted into the human Alya IgG1 vector and re-expressed and purified as described in section 4.1. 5E3 epitope competition assay methods are described in section 3.2 and were used to test purified human Alya IgG1s. The purified human Alya IgG1s were diluted to a 4× stock and then serially diluted using 4-fold dilutions to generate a 10 point concentration response curve.

[3] = target: T2, mouse SEMA4A expressed on expi293 cells …; assay: Mirrorball direct binding, dilution series on expi293 cells transiently transfected with mouse SEMA4A, anti-human Alexa Fluor 647

Binder	IC50 (pM), Fab-ZAP cell kill, NCI-H929 [1]	Max % Cell Kill, Fab-ZAP, NCI-H929 [1]	IC50 [2]	binding result [3]
B1	38 pM	89%	0.3 nM	binds
B2	38 pM	78%	1.1 nM	binds
B3	66 pM	76%	2 nM	binds
B4	74 pM	74%	2.1 nM	binds
B5	52 pM	83%	1.1 nM	binds
B6	113 pM	58%	11.3 nM	binds
B7	119 pM	50%	20.4 nM	binds
B8	119 pM	33%	45.5 nM	binds
B9	122 pM	56%	9.7 nM	binds
B10	151 pM	58%	8.4 nM	binds
